Data reported in PMC7062162.

Key:
[1] = molecular target: A6E peptide-DR1 complex (human)
[2] = molecular target: A6G peptide-DR1 complex (human)
[3] = molecular target: 0410 Y1A peptide-DR1 complex (human)
[4] = molecular target: OPT1 Y1A peptide-DR1 complex (human)
[5] = molecular target: Y1I peptide-DR1 complex (human)
[6] = molecular target: L4R peptide-DR1 complex (human)
[7] = molecular target: L4G peptide-DR1 complex (human)
[8] = molecular target: L4G′ peptide-DR1 complex (human)
[9] = molecular target: I9E peptide-DR1 complex (human); test: fluorescence polarisation; real-time fluorescence anisotropy of Alexa Fluor 488-peptide leaving DR1 (50 nM complex) with titrated HLA-DM (up to 90 μM) and 20 μM unlabeled competitor peptide; 250 mM citrate, 150 mM NaCl, pH 5.0, 37 °C; kobs fitted to a Michaelis-Menten model, Km taken as Kd of DM for the pMHCII (OPT1-DR1: initial velocities, Lineweaver-Burk)

Q: For “soluble recombinant HLA-DM (DMA*0101/DMB*0101) (complex)”, which kcat, fold change against OPT1-DR1 (A6E) [1] is on record?
A: Its kcat, fold change against OPT1-DR1 (A6E) is > 200 fold.

Q: What about the kcat, fold change against the A6G complex (G6E) [1] of the same substance?
A: The kcat, fold change against the A6G complex (G6E) was > 100 fold.

Q: What about the kcat, fold change against OPT1-DR1 [2] of the same substance?
A: Its kcat, fold change against OPT1-DR1 is 2 fold.

Q: What about the kcat, fold change against the 0410 complex [3] of the same substance?
A: The kcat, fold change against the 0410 complex was 8 fold.

Q: And the kcat, fold change against OPT1-DR1 [4]?
A: The kcat, fold change against OPT1-DR1 was > 2600 fold.

Q: And the kcat, fold change against the homologous complex with Tyr at P1 [5]?
A: Its kcat, fold change against the homologous complex with Tyr at P1 is 18 fold.

Q: What about the kcat, fold change against OPT1-DR1 [6] of the same substance?
A: Its kcat, fold change against OPT1-DR1 is > 1300 fold.

Q: What about the kcat, fold change against OPT1-DR1 [7] of the same substance?
A: Its kcat, fold change against OPT1-DR1 is > 120 fold.

Q: What about the kcat, fold change against the I9E complex [8] of the same substance?
A: The kcat, fold change against the I9E complex was 510 fold.

Q: What about the fold decrease in Km against the homologous complex with Ile at P9 [9] of the same substance?
A: Its fold decrease in Km against the homologous complex with Ile at P9 is 9 fold.
